Measurements published in US10799597B2, “Subcutaneous administration of antibody-drug conjugates for cancer therapy” (Immunomedics, Inc., priority 2017, dated 2020).
“And” between values parts separate entries of the source, which are not always exact repeats. Equal values may be shown once.

Key:
[1] = Pharmacokinetics and biodistribution of 111In-labeled hRS7-CL2A-SN-38 and hRS7 IgG in nude mice bearing SK-MES-1 tumors; format: in vivo
Experimental: One group was injected intravenously with 20 μCi (250-μg protein) of ^111In-hRS7-CL2A-SN-38, whereas another group received 20 μCi (250-μg protein) of ^111In-hRS7 IgG. At various timepoints mice (5 per timepoint) were anesthetized, bled via intracardiac puncture, and then euthanized. Tumors and various tissues were removed, weighed, and counted by γ scintillation to determine the percentage injected dose per gram tissue (% ID/g). […] Pharmacokinetic analysis on blood clearance was performed using WinNonLin software (Parsight Corp.).

[2] = test system: triple-negative breast cancer; assay: Subcutaneous IMMU-132 in triple-negative breast cancer patients (Example 10); format: in vivo, human
Experimental: Maintenance doses of ADC are administered i.v. or s.c. every two to three weeks or monthly after induction. Alternatively, induction may occur with two to four cycles of i.v. administration at 8-10 mg/kg (each cycle with ADC administration on Days 1 and 8 of two 21-day cycles with a one-week rest period in between), followed by s.c. administration as active dosing one or more times weekly or as maintenance therapy. Dosing may be adjusted based on interim tumor scans and/or by analysis of Trop-2 positive circulating tumor cells.

[3] = test system: COLO 205 colonic adenocarcinoma xenografts; conditions: 0.4 mg/kg SN-38 twice weekly×4 weeks
Experimental: Animals were implanted subcutaneously with different human cancer cell lines. Tumor volume (TV) was determined by measurements in 2 dimensions using calipers, with volumes defined as: L×w^2/2, where L is the longest dimension of the tumor and w is the shortest. […] This dosing frequency reflected a consideration of the conjugate's serum half-life in vitro, to allow a more continuous exposure to the ADC.
Growth curves are shown as percent change in initial TV over time. Statistical analysis of tumor growth was based on area under the curve (AUC). Profiles of individual tumor growth were obtained through linear-curve modeling. An f-test was employed to determine equality of variance between groups before statistical analysis of growth curves. A 2-tailed t-test was used to assess statistical significance between the various treatment groups and controls, except for the saline control, where a 1-tailed t-test was used (significance at P≤0.05). Statistical comparisons of AUC were performed only up to the time that the first animal within a group was euthanized due to progression.

[4] = test system: diverse metastatic cancers; assay: Phase I/II clinical trial of IMMU-132 (Example 9): best response and TTP
Experimental: (§2) To optimize cumulative treatment with minimal delays, phase II is focusing on 8 and 10 mg/kg (n=30 and 14, respectively). […] [table]

[5] = test system: human urinary bladder carcinoma (5637); assay: Efficacy of i.v. vs. s.c. IMMU-132 in 5637 bladder carcinoma xenografts; format: in vivo, athymic nude mice; conditions: for mean tumor volume: day 82; for mice still alive on day 82: N=5; for median survival time (MST): post-therapy initiation
Experimental: 5637 cells were expanded in tissue culture and harvested with trypsin/EDTA. Female athymic nude mice were injected s.c. with 200 μL of 5637 cell suspension mixed 1:1 with matrigel such that 1×10^7 cells was administered to each mouse. Once tumors reached approximately 0.25 cm^3 in size (15 days later), the animals were divided up into three different treatment groups of 4-5 mice each. For the i.v. injections (N=5), mice receive 500 μg i.v. twice a week for four weeks. […] A final group of mice received only saline (N=4) and served as the untreated control. Tumors were measured and mice weighed twice a week. Mice were euthanized for disease progression if their tumor volumes exceeded 1.0 cm^3 in size.

[6] = test system: Capan-1 pancreatic adenocarcinoma xenografts; assay: Therapy of Capan-1 tumor xenografts in nude mice; format: in vivo, athymic nude mice; conditions: 0.2 mg/kg SN-38 twice weekly×4 weeks
Experimental: FIG. 3C. […] Animals were treated twice weekly for 4 weeks as indicated by the arrows. Capan-1 mice (N=10) were treated with 0.2 mg/kg ADC and tumors measured weekly.
FIG. 4C. […] Capan-1 (N=10) were treated twice weekly for 4 weeks with the agents indicated.

[7] = Tolerability of multiple subcutaneous injections of IMMU-132 in nude mice; format: in vivo, female nude mice; conditions: s.c. 2 mg or 500 μg twice a week for four weeks
Experimental: One group of two mice received 2 mg injections (HED=8 mg/kg) while a second group of two animals, 500 μg (HED=2 mg/kg). For comparison, one mouse received only saline injections. Each injection (100 μL) was administered at the same location (i.e., right rear flank) twice a week for four weeks. Mice were weighed on the day of injection and the injection site examined for any signs of toxicity (i.e, rash, ulceration, etc.). If any occur, it would be documented by photographing the area. One day after the last injection, the mice were anesthetized and the injection site photographed (FIG. 12). This was repeated one week after the final injection (FIG. 13).

[8] = Phase I/II clinical trial of IMMU-132 (Example 9): related adverse events
Experimental: as §2

[9] = format: in vivo, human
Experimental: SN-38 was measured by HPLC.

Calu-3 = assay: Signaling events (p21Waf1/Cip1, p53) in Calu-3 cells; format: cell-based, human
Excerpt: (§1) SN-38 is known to activate several signaling pathways in cells, leading to apoptosis (e.g., Cusack et al., 2001, Cancer Res 61:3535-40; Liu et al. 2009, Cancer Lett 274:47-53; Lagadec et al., 2008, Br J Cancer 98:335-44). Our initial studies examined the expression of 2 proteins involved in early signaling events (p21^Waf1/Cip1 and p53) and 1 late apoptotic event [cleavage of poly-ADP-ribose polymerase (PARP)] in vitro (not shown).

BxPC-3 = assay: Signaling events (p21Waf1/Cip1, p53) in BxPC-3 cells; format: cell-based, human
Excerpt: as §1

[10] = Phase I/II trial of IMMU-132: MTD and toxicity profile; format: in vivo, human; conditions: 75 patients in the full trial
Experimental: Patients with metastatic cancers were enrolled after failing standard therapy, starting at a dose of 8.0 mg/kg given on days 1 and 8 of a 3-week cycle.

[11] = 48 assessable patients (excluding PDC)
[12] = 49 patients reporting related AE
[13] = related AE, N = 47 patients, CTCAE v 4.0

With “IMMU-132: ADC of the humanized hRS7 anti-Trop-2 antibody conjugated by a pH-sensitive linker (CL2A) to SN-38” the “amount in the tumor compared with hRS7 IgG” value ([1]; 72 hours (peak uptake)) was “similar”, the “half-life shorter than unconjugated hRS7” value ([1]; i.v., 250-μg protein) was about 40% and the “localized reaction at the administration site” value ([2]; s.c.) was “no adverse localized reaction is observed”. The “average decrease in tumor volume” value ([2]; s.c. 2 to 4 mg/kg schedules, after two cycles of therapy) was 35%, the “tumor growth vs. saline and hA20-CL2A-SN-38” value [3] was “significantly inhibited tumor growth” and the “patients with SD” value ([4]; 13 CT-assessable PDC patients) was 62%. For the same substance, the “patients with disease response (total)” value [4, 11] was 79%, the “patients with partial response (PR)” value [4, 11] was 15% and the “median time to progression (TTP)” value ([4]; PDC patients) was 12.7 wks and 11.9 wks. For the same substance, the mean tumor volume ([5]; i.v. 500 μg twice a week for four weeks) was 0.066±0.076 cm^3, the “mice still alive on day 82” value ([5]; i.v.) was 5 and the “median survival time (MST)” value ([5]; i.v.) was over 67 days. The mean tumor volume ([5]; s.c. 500 μg twice weekly for four weeks) was 0.111±0.057 cm^3, the “mice still alive on day 82” value ([5]; s.c.) was 5 and the “median survival time (MST)” value ([5]; s.c.) was over 67 days. For the same substance, the “tumor growth vs. saline and hA20-CL2A-SN-38” value [6] was “significantly inhibited tumor growth”, the “mice tumor-free at the end of the study” value ([6]; day 140) was 50% and the “skin irritation at the site of multiple injections” value [7] was “no evidence of skin irritation”. It also gave an alopecia [8, 12] of 40%, a diarrhea [8, 12] of 47% and a fatigue [8, 12] of 55%. For the same substance, the nausea [8, 12] was 53%, the “neutropenia G4” value [8, 12] was 4% and the vomiting [8, 12] was 32%. For the same substance, the “Abdominal pain, Grade 3, patients (%)” value [8, 13] was 0, the “Abdominal pain, Grade 4, patients (%)” value [8, 13] was 0 and the “Anemia, Grade 3, patients (%)” value [8, 13] was 2 (4%). For the same substance, the “Anemia, Grade 4, patients (%)” value [8, 13] was 0, the “Deep vein thrombosis, Grade 3, patients (%)” value [8, 13] was 1 (2%) and the “Deep vein thrombosis, Grade 4, patients (%)” value [8, 13] was 0. For the same substance, the “Diarrhea, Grade 3, patients (%)” value [8, 13] was 4 (9%), the “Diarrhea, Grade 4, patients (%)” value [8, 13] was 0 and the “Dysgeusia, Grade 3, patients (%)” value [8, 13] was 0. For the same substance, the “Dysgeusia, Grade 4, patients (%)” value [8, 13] was 0, the “Fatigue, Grade 3, patients (%)” value [8, 13] was 4 (9%) and the “Fatigue, Grade 4, patients (%)” value [8, 13] was 0. For the same substance, the “Febrile Neutropenia, Grade 3, patients (%)” value [8, 13] was 1 (2%), the “Febrile Neutropenia, Grade 4, patients (%)” value [8, 13] was 2 (4%) and the “Hypokalemia, Grade 3, patients (%)” value [8, 13] was 1 (2%). The “Hypokalemia, Grade 4, patients (%)” value [8, 13] was 0, the “Nausea, Grade 3, patients (%)” value [8, 13] was 0 and the “Nausea, Grade 4, patients (%)” value [8, 13] was 0. For the same substance, the “Neutropenia, Grade 3, patients (%)” value [8, 13] was 11 (24%), the “Neutropenia, Grade 4, patients (%)” value [8, 13] was 2 (4%) and the “Pyrexia, Grade 3, patients (%)” value [8, 13] was 0. For the same substance, the “Pyrexia, Grade 4, patients (%)” value [8, 13] was 0, the “Vomiting, Grade 3, patients (%)” value [8, 13] was 1 (2%) and the “Vomiting, Grade 4, patients (%)” value [8, 13] was 0. The “WBC Decrease, Grade 3, patients (%)” value [8, 13] was 1 (2%), the “WBC Decrease, Grade 4, patients (%)” value [8, 13] was 0 and the “clearance of intact conjugate vs. the IgG” value ([9]; ELISA) was “cleared more quickly than the IgG”. The “time for the conjugate to clear from the serum” value ([9]; patients) was at most 3 days, the “increase of p21Waf1/Cip1 expression over free SN-38” value (Calu-3) was “more than 2 fold” and the “time of p53 upregulation” value (Calu-3) was at most 24 h. For the same substance, the “time of p53 upregulation” value (BxPC-3) was at most 24 h, the “Grade 3 diarrhea” value [10] was 6.7% and the “Grade 3 neutropenia” value [10] was 17.3%. The “Grade 4 neutropenia” value [10] was 2.7%.
